Positions count from the first letter of the chain named. Each block holds one binder with its values, some of them ahead of it.
How the values were obtained:
[1] = biological target: T1, human CD112R over-expressed on Jurkat cells (human, UniProt Q6DKI7 1-326); test: flow cytometry on Jurkat cells over-expressing human CD112R, 0.63 ug/mL antibody
T1 construct: whole, on cells; also called Jurkat-CD112R OE; PVRIG
T1 sequence (looked up): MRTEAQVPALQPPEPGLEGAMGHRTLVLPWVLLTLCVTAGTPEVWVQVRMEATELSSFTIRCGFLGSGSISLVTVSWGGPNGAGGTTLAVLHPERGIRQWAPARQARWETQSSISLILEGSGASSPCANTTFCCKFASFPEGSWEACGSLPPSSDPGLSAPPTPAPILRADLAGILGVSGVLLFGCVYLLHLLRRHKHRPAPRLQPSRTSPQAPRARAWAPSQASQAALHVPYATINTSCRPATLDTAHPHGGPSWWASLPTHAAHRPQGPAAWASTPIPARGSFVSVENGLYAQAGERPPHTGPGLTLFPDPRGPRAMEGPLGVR
Procedure: The ability of anti-CD112R antibodies to bind to CD112R expressed on cells was evaluated. 1×10⁵ Jurkat cells (acute T cell leukemia cell line, ATCC # TIB-152) that were either wild type or engineered to over-express human CD112R (Jurkat-CD112R OE) were added to each well of a 96-well V bottom plate and stained with either anti-CD112R antibodies or an IgG1 isotype control (0.63 μg/mL) for 1 hour at 4° C. Cells were washed twice with PBS+2% FCS and resuspended with Alexa Fluor® 647 anti-human IgG Fc antibody (Biolegend, Cat #409320) diluted 1:100 in PBS+2% FCS and incubated at 4° C. for 30 minutes. Cells were subsequently washed twice and resuspended in PBS+2% FCS. Cellular data was acquired using a LSRFortessa X-20 (BD Biosciences) and analyzed with FlowJo software (Tree Star).
Results are depicted in FIG. 1. Quantitation of antibody binding to Jurkat-CD112R OE cells was assessed by the geometric mean fluorescent intensity (gMFI) of the Alexa Fluor® 647 signal.

[2] = biological target: T2, mouse CD112R over-expressed on 293T cells (mouse); test: flow cytometry on 293T cells over-expressing mouse CD112R
T2 construct: whole, on cells; also called 293T.mCD112R; 293T-mouse CD112R
Procedure: The ability of anti-CD112R antibodies to bind to mouse CD112R was evaluated on cells overexpressing mouse CD112R. 0.8×10⁵ 293T cells (ATCC CRL-3216) that were engineered to overexpress mouse CD112R (293T.mCD112R) were added to each well of a 96-well V bottom plate and stained with either anti-CD112R antibodies or an IgG1 isotype control at a starting concentration of […], with 3-fold serial dilutions for 30 minutes at 4° C. Cells were washed twice with PBS+2% FCS and resuspended with Alexa Fluor® 647 anti-human IgG Fc antibody (Biolegend, Cat #409320) diluted 1:100 in PBS+2% FCS and incubated at 4° C. for 20 minutes. Cells were subsequently washed twice and resuspended in PBS+2% FCS. Cellular data was acquired using a LSRFortessa X-20 (BD Biosciences) and analyzed with FlowJo software (Tree Star).
Results are depicted in FIG. 17 and Table 11. Quantitation of antibody binding to 293T.mCD112R cells was assessed by the geometric mean fluorescent intensity (gMFI) of the Alexa Fluor® 647 signal.

Jurkat-CD112R over-expressed (OE) gMFI (fold increase over isotype) [1]: 55.7 fold
B1: Antibody 10 (antibody, V domains shown)
VH: EVQLVESGGGLVQPGRSLRLSCAASGFTFDDYAVHWVRQAPGKGLEWVSGISWSSGLIGYADSVKGRFTISRDNAKNSLYLQMNSLRAEDTAVYYCAKGPPTYQDYFDLWGRGTLVTVSS
VL: EIVLTQSPATLSLSPGERATLSCRASQSVSRYLAWYQQKPGQAPRLLIYDASNRATGIPARFSGSGSGTDFTLTISSLEPEDFAVYYCQQVSFFPPITFGGGTKVEIK
notes: Tested as IgG detected with anti-human IgG Fc, compared with an IgG1 isotype control; also called antibody clone number 10; clone 10

Jurkat-CD112R over-expressed (OE) gMFI (fold increase over isotype) [1]: 51.7 fold
B2: Antibody 38 (antibody, V domains shown)
VH: EVQLLESGGGLVQPGGSLRLSCAASGFTFSGHLMSWVRQAPGKGLEWVSAISGSAGETYYADSVKGRFTISRDNSKNTLYLQMNSLRAEDTAVYYCARDAYYDDWSGWADWYFDLWGRGTLVTVSS
VL: EIVLTQSPATLSLSPGERATLSCRASQSVSRYLAWYQQKPGQAPRLLIYDASNRATGIPARFSGSGSGTDFTLTISSLEPEDFAVYYCQQVSLLPPTFGGGTKVEIK
notes: Tested as IgG detected with anti-human IgG Fc, compared with an IgG1 isotype control; also called antibody clone number 38; clone 38

Jurkat-CD112R over-expressed (OE) gMFI (fold increase over isotype) [1]: 46.9 fold
B3: Antibody 44 (antibody, V domains shown)
VH: QVQLVQSGAEVKKPGSSVKVSCKASGGTFDNYYISWVRQAPGQGLEWMGGIFPIFGTANYAQKFQGRVTITADESTSTAYMELSSLRSEDTAVYYCAREVGHYSGSPYYMDVWGKGTTVTVSS
VL: DIQMTQSPSTLSASVGDRVTITCRASQSINSWLAWYQQKPGKAPKLLISDASSLESGVPSRFSGSGSGTEFTLTISSLQPDDFATYYCQQVGPYLTFGGGTKVEIK
notes: Tested as IgG detected with anti-human IgG Fc, compared with an IgG1 isotype control; also called antibody clone number 44; clone 44

Jurkat-CD112R over-expressed (OE) gMFI (fold increase over isotype) [1]: 53.2 fold
B4: Antibody 15 (antibody, V domains shown)
VH: EVQLVESGGGLVQPGRSLRLSCTASGFTFGDVAMSWFRQAPGKGLEWVGYIGSKAYGGETEYTASVKGRFTISRDGSKSIAYLQMNSLKTEDTAVYYCARAGHSYGSIASNWFDPWGQGTLVTVSS
VL: DIQMTQSPSSLSASVGDRVTITCRASQSISSYLNWYQQKPGKAPKLLIYGASSLQSGVPSRFSGSGSGTDFTLTISSLQPEDFATYYCQQGFYTPWTFGGGTKVEIK
notes: Tested as IgG detected with anti-human IgG Fc, compared with an IgG1 isotype control; also called antibody clone number 15; clone 15

293T-mouse CD112R gMFI (fold increase over isotype) [2]: 14.9 fold
Jurkat-CD112R over-expressed (OE) gMFI (fold increase over isotype) [1]: 27.9 fold
B5: Antibody 32 (antibody, V domains shown)
VH: QVQLVQSGAEVKKPGSSVKVSCKASGGTFSSYAISWVRQAPGQGLEWMGGIIPISGTANYAQKFQGRVTITADESTSTAYMELSSLRSEDTAVYYCARDTGRGYTRHFWFDPWGQGTLVTVSS
VL: DIQMTQSPSSLSASVGDRVTITCRASQSISSYLNWYQQKPGKAPKLLIYAASSLQSGVPSRFSGSGSGTDFTLTISSLQPEDFATYYCQQSDILYTFGGGTKVEIK
notes: Tested as IgG detected with anti-human IgG Fc, compared with an IgG1 isotype control; Parent of antibodies 33, 34, 35 and 36; also called antibody clone number 32; parent clone 32

293T-mouse CD112R gMFI (fold increase over isotype) [2]: 74.8 fold
Jurkat-CD112R over-expressed (OE) gMFI (fold increase over isotype) [1]: 23.8 fold
B6: Antibody 46 (antibody, V domains shown)
VH: EVQLVESGGGLVQPGRSLRLSCTASGFTFGDYAMSWFRQAPGKGLEWVGFIGSKAYGGTTEYTASVKGRFTISRDGSKSIAYLQMNSLKTEDTAVYYCARGPRRYTYGMDVWGQGTTVTVSS
VL: B5 VL with D92S, I93T, L94P, Y95L
notes: also called antibody clone number 46; clone 46

293T-mouse CD112R gMFI (fold increase over isotype) [2]: 72.2 fold
Jurkat-CD112R over-expressed (OE) gMFI (fold increase over isotype) [1]: 33.8 fold
B7: Antibody 34 (antibody, V domains shown)
VH: B5 VH with Y32A, I52F, T57H
VL: B5 VL
notes: Tested as IgG detected with anti-human IgG Fc, compared with an IgG1 isotype control; also called antibody clone number 34; clone 34

293T-mouse CD112R gMFI (fold increase over isotype) [2]: 73.3 fold
Jurkat-CD112R over-expressed (OE) gMFI (fold increase over isotype) [1]: 34.2 fold
B8: Antibody 33 (antibody, V domains shown)
VH: B5 VH with S30G, S31N, S55P, T57I
VL: B5 VL
notes: Tested as IgG detected with anti-human IgG Fc, compared with an IgG1 isotype control; also called antibody clone number 33; clone 33

293T-mouse CD112R gMFI (fold increase over isotype) [2]: 55.6 fold
Jurkat-CD112R over-expressed (OE) gMFI (fold increase over isotype) [1]: 32.1 fold
B9: Antibody 35 (antibody, V domains shown)
VH: B5 VH with Y32A, G50N, S55V, T57I
VL: B5 VL
notes: Tested as IgG detected with anti-human IgG Fc, compared with an IgG1 isotype control; also called antibody clone number 35; clone 35

293T-mouse CD112R gMFI (fold increase over isotype) [2]: 79.4 fold
Jurkat-CD112R over-expressed (OE) gMFI (fold increase over isotype) [1]: 37.3 fold
B10: Antibody 58 (antibody, V domains shown)
VH: B6 VH with A55F, T59E
VL: B5 VL with D92S, I93T, L94P, Y95L
notes: Tested as IgG detected with anti-human IgG Fc, compared with an IgG1 isotype control; also called antibody clone number 58; clone 58

293T-mouse CD112R gMFI (fold increase over isotype) [2]: 76.3 fold
Jurkat-CD112R over-expressed (OE) gMFI (fold increase over isotype) [1]: 31 fold
B11: Antibody 36 (antibody, V domains shown)
VH: B5 VH with S30A, S31T, I52F, I54L
VL: B5 VL
notes: Tested as IgG detected with anti-human IgG Fc, compared with an IgG1 isotype control; also called antibody clone number 36; clone 36

Jurkat-CD112R over-expressed (OE) gMFI (fold increase over isotype) [1]: 63.9 fold
B12: Antibody 2 (antibody, V domains shown)
VH: EVQLVESGGGLVKPGGSLRLSCAASGFTFSEYTMNWVRQAPGKGLEWVSAIVGSGDSTYYADSVKGRFTISRDNSKNTLYLQMNSLRAEDTAVYYCAKDYSSGDWIDYGMDVWGQGTTVTVSS
VL: DIQMTQSPSSLSASVGDRVTITCQASQDISNYLNWYQQKPGKAPKLLIYDASNLATGVPSRFSGSGSGTDFTFTISSLQPEDIATYYCQQFDLLPPTFGGGTKVEIK
notes: Tested as IgG detected with anti-human IgG Fc, compared with an IgG1 isotype control; also called antibody clone number 2; clone 2

Jurkat-CD112R over-expressed (OE) gMFI (fold increase over isotype) [1]: 63.3 fold
B13: Antibody 5 (antibody, V domains shown)
VH: B12 VH with V5L, K13Q, E31D, T33A, N35I, V52S, S54G, D56E
VL: B12 VL
notes: Tested as IgG detected with anti-human IgG Fc, compared with an IgG1 isotype control; also called antibody clone number 5; clone 5
